Measurements from US20210032315A1 (VIVORYON THERAPEUTICS N V, published 2021).
Where two headings read alike, the source gives them in different places.

Legend:
[1] = biological target: T1, Fibrils of Aβ (1-42) peptides (human); test: SPR, fibrils captured on the chip, antibody as analyte, single cycle kinetics
T1 construct: Fibrillar aggregate of Aβ 1-42, made at pH 8.7 and 37 °C and captured on the sensor chip (about 100 RU); also called Aβ (1-42) fibrils
Method: (§1) The obtained sensorgrams were evaluated using five consecutive concentrations (starting with the first injection showing binding) and the Single Cycle Kinetics model with a global fit of Rmax and baseline drift and local fits of the bulk effect of every injection.

[2] = biological target: T2, Oligomers of Aβ (1-42) peptides (human); test: SPR, oligomers captured on the chip, antibody as analyte, single cycle kinetics
T2 construct: Oligomeric Aβ 1-42, made by the ACUMEN protocol in Ham's F12 at 4 °C and captured on the sensor chip (about 300 RU); also called Aβ (1-42) oligomers
Method: Oligomers of Aβ (1-42) peptides were generated according to the ACUMEN protocol in Ham's F12 medium overnight at 4° C. and separated from aggregated Aβ by centrifugation. Afterwards the oligomers were aspirated in 20 μl, diluted in 60 μl running buffer and loaded onto a sensor chip by use of capture antibodies with a flow rate of 1 μl/min. Then, the system was washed overnight with 100 μl/min getting a stable baseline.
as §1

Aβ (4-18) [3] = biological target: T3, Aβ (4-18) (human); test: SPR, antibody captured by anti-human antibody, peptide as analyte, steady-state model
T3 peptide: FRHDSGYEVHHQKLV

Aβ (1-18) = biological target: T4, Aβ (1-18) (human); test: SPR, antibody captured by anti-human antibody, peptide as analyte
T4 peptide: DAEFRHDSGYEVHHQKLV

Aβ (4-18) [4] = biological target: T3, Aβ (4-18); test: SPR, antibody captured by anti-human antibody, peptide as analyte, steady-state model
full length human CD32B = biological target: T5, full length human CD32B (human, UniProt P31994 43-310); test: FACS on CHO cells stably expressing the receptor, 7 concentrations
T5 construct: whole, on cells; also called Fc gamma receptor
T5 sequence (looked up): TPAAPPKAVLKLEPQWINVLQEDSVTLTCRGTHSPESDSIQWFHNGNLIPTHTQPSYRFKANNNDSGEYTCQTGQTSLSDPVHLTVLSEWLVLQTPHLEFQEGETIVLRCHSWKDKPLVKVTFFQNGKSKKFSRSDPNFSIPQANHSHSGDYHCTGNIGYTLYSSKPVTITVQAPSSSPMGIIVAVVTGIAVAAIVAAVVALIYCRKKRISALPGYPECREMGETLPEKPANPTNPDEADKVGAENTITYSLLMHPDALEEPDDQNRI
Method: (§2) The binding was measured in a FACS based bioassay to Chinese Hamster Ovary (CHO) cells stably expressing full length human CD16A, CD32A, CD32B, or CD64. Both antibodies were incubated with each cell line at 7 different concentrations for one hour followed by washing. Receptor-bound H6 or H67 was detected with fluorochrome conjugated-anti-Fab′. Binding capacity was measured by FACS and the Kd and Bmax were calculated by non-linear regression.

full length human CD16A = biological target: T6, full length human CD16A (human, UniProt P08637 17-254); test: as above
T6 construct: whole, on cells; also called Fc gamma receptor
Method: as §2

full length human CD64 = biological target: T7, full length human CD64 (human, UniProt P12314 16-374); test: as above
T7 construct: whole, on cells; also called Fc gamma receptor
Method: as §2

full length human CD32A = biological target: T8, full length human CD32A (human, UniProt P12318 34-317); test: as above
T8 construct: whole, on cells; also called Fc gamma receptor
T8 sequence (looked up): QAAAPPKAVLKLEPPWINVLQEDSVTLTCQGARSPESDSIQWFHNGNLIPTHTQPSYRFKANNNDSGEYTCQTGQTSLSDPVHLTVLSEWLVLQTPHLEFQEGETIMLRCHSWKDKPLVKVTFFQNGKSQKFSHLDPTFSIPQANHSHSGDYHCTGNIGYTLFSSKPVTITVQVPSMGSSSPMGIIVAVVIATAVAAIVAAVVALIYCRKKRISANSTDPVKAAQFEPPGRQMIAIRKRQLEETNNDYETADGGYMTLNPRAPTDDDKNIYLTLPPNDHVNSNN
Method: as §2

T1 sequence (peptide, as listed by the source): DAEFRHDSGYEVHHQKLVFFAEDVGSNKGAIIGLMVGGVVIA
T2 sequence (peptide, as listed by the source): as above
T7 sequence (P12314 16-374): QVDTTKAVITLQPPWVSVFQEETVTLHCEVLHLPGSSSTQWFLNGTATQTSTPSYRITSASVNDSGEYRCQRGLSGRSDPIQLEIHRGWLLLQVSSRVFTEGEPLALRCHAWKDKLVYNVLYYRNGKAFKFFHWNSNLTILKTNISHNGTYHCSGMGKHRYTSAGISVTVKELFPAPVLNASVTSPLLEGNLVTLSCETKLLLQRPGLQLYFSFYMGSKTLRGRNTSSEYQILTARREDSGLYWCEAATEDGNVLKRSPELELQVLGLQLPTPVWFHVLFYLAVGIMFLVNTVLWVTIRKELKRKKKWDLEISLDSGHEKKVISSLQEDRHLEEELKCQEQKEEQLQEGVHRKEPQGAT
T6 sequence (P08637 17-254): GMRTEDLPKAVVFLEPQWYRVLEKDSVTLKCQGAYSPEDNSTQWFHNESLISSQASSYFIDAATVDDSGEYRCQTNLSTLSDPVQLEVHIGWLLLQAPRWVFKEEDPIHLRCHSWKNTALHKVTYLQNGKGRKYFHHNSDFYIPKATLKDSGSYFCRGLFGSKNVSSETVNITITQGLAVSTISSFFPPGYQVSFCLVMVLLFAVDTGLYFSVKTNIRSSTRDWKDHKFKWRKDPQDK

Binder	Kd [1] [nM]	koff [1] [s⁻¹]	kon [1] [M⁻¹ s⁻¹]	Kd [2] [nM]	koff [2] [s⁻¹]	kon [2] [M⁻¹ s⁻¹]	Kd (Aβ (4-18) [3]) [nM]	Kd (Aβ (1-18)) [nM]	Kd (Aβ (4-18) [4]) [nM]	binding result (full length human CD32B)	binding result (full length human CD16A)	binding result (full length human CD64)	binding result (full length human CD32A)
parental antibody clone #6 disclosed in WO 2017/009459 (antibody, V domains shown, also called parental clone #6 variant) VH: QVQLVQSGAEVKKSGASVKVSCKASGYSFTGHTMNWVRQAPGQGLEWMGLINPSNGVTRYNQKFQGRVTITRDTSTTTVHMELTSLTSEDTATYYCTREAKREWDETYWGQGTLVTVSS VL: DVVMTQSPLSLPVTLGQPASISCKSSQSLLYSDGKTYLNWFQQRPGQSPRRLTYLVSKLDSGVPDRFSGSGSGTDFTLKISRVEAEDVGVYYCVQGTHFPFTFGGGTKVEIK	0.0659	6.53e-05	990000	7.61	0.000142	18600	–	–	–	–	–	–	–
humanized and de-immunized antibody clone #6 of the present invention (antibody, V domains shown, It was captured by a polyclonal anti-human antibody, so it has human constant regions) VH: QVQLVQSGAEVVKPGASVKVSCKASGYSFTGHTMNWVRQAPGQGLEWMGLINPSDGVTRYNQKFQGRVTITRDTSTTTVHMELTSLTSEDTATYYCTREAKREWDETYWGQGTLVTVSS VL: DVVMTQSPLSLPVTLGQPASISCKSSQSLLYSDGKTYLNWFQQRPGQSPRRLTYLVSKLDSGVPDRFSGSGSGTDFTLKISRVEAEDVGVYYCVQGTHFPFTFGGGTKVEIK	1.67	–	–	269	–	–	> 10000	> 10000	28300	–	–	–	–
antibody comprising the wild-type heavy chain of SEQ ID NO: 19 (antibody, human IgG1, kappa, also called antibody according to A)) heavy: not shown light: DVVMTQSPLSLPVTLGQPASISCKSSQSLLYSDGKTYLNWFQQRPGQSPRRLTYLVSKLDSGVPDRFSGSGSGTDFTLKISRVEAEDVGVYYCVQGTHFPFTFGGGTKVEIKRTVAAPSVFIFPPSDEQLKSGTASVVCLLNNFYPREAKVQWKVDNALQSGNSQESVTEQDSKDSTYSLSSTLTLSKADYEKHKVYACEVTHQGLSSPVTKSFNRGEC	–	–	–	–	–	–	–	–	–	binds	binds	binds	binds
K324A mutant variant (comprising the heavy chain of SEQ ID NO: 18) (antibody, human IgG1, kappa, also called antibody according to B)) heavy: not shown light: DVVMTQSPLSLPVTLGQPASISCKSSQSLLYSDGKTYLNWFQQRPGQSPRRLTYLVSKLDSGVPDRFSGSGSGTDFTLKISRVEAEDVGVYYCVQGTHFPFTFGGGTKVEIKRTVAAPSVFIFPPSDEQLKSGTASVVCLLNNFYPREAKVQWKVDNALQSGNSQESVTEQDSKDSTYSLSSTLTLSKADYEKHKVYACEVTHQGLSSPVTKSFNRGEC	–	–	–	–	–	–	–	–	–	binds	binds	binds	binds
